Patent publication US20250313644A1
Like-named read-outs stand apart in the source and are kept apart here.

Key:
[1] = molecular target: human TL1A (HuTL1A) (human) (UniProt O95150)
[2] = molecular target: human TL1A (HuTL1A) (human) (UniProt O95150); remark: listed apart in the source
FASL [3] = molecular target: FASL (UniProt P48023); test: ELISA, coated FASL, Ab 25 nM
LT-α [4] = molecular target: T1, LT-α (UniProt P01374); test: ELISA, coated LT-α, Ab 25 nM
T1 sequence (looked up): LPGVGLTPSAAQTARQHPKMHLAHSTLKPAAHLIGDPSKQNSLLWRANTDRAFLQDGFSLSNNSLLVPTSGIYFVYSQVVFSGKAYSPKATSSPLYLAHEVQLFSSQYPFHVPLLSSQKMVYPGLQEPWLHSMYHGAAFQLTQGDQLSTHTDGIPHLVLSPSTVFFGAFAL

FASL [5] = molecular target: FASL (UniProt P48023); test: ELISA, coated FASL, Ab 100 nM
LIGHT [6] = molecular target: LIGHT (UniProt O43557); test: ELISA, coated LIGHT, Ab 25 nM
LT-α [7] = molecular target: T1, LT-α; test: ELISA, coated LT-α, Ab 100 nM
TNFα [8] = molecular target: TNFα (UniProt P01375); test: ELISA, coated TNF-α, Ab 25 nM
FASL [9] = molecular target: FASL (UniProt P48023); test: ELISA, coated FASL, Ab 6.25 nM
LIGHT [10] = molecular target: LIGHT (UniProt O43557); test: ELISA, coated LIGHT, Ab 100 nM
LT-α [11] = molecular target: T1, LT-α; test: ELISA, coated LT-α, Ab 6.25 nM
TNFα [12] = molecular target: TNFα (UniProt P01375); test: ELISA, coated TNF-α, Ab 100 nM
FASL [13] = molecular target: FASL (UniProt P48023); test: ELISA, coated FASL, Ab 0.391 nM
FASL [14] = molecular target: FASL (UniProt P48023); test: ELISA, coated FASL, Ab 1.563 nM
LIGHT [15] = molecular target: LIGHT (UniProt O43557); test: ELISA, coated LIGHT, Ab 6.25 nM
LT-α [16] = molecular target: T1, LT-α; test: ELISA, coated LT-α, Ab 0.391 nM
LT-α [17] = molecular target: T1, LT-α; test: ELISA, coated LT-α, Ab 1.563 nM
TNFα [18] = molecular target: TNFα (UniProt P01375); test: ELISA, coated TNF-α, Ab 6.25 nM
LIGHT [19] = molecular target: LIGHT (UniProt O43557); test: ELISA, coated LIGHT, Ab 0.391 nM
LIGHT [20] = molecular target: LIGHT (UniProt O43557); test: ELISA, coated LIGHT, Ab 1.563 nM
TNFα [21] = molecular target: TNFα (UniProt P01375); test: ELISA, coated TNF-α, Ab 0.391 nM
TNFα [22] = molecular target: TNFα (UniProt P01375); test: ELISA, coated TNF-α, Ab 1.563 nM
FASL [23] = molecular target: FASL (UniProt P48023); test: ELISA, coated FASL, Ab 0.000 nM (blank)
LT-α [24] = molecular target: T1, LT-α; test: ELISA, coated LT-α, Ab 0.000 nM (blank)
LIGHT [25] = molecular target: LIGHT (UniProt O43557); test: ELISA, coated LIGHT, Ab 0.000 nM (blank)
TNFα [26] = molecular target: TNFα (UniProt P01375); test: ELISA, coated TNF-α, Ab 0.000 nM (blank)
[27] = molecular target: human TL1A (HuTL1A) (human) (UniProt O95150); test: DLS, antigen and antibody mixed in equal moles
[28] = molecular target: human TL1A (HuTL1A) (human) (UniProt O95150); test: ELISA: biotin-HuTL1A on streptavidin plate, antibody diluted at pH 5.8, HRP-anti-human Fc, OD450
[29] = molecular target: human TL1A (HuTL1A) (human) (UniProt O95150); test: ELISA: biotin-HuTL1A on streptavidin plate, antibody diluted at pH 7.4, HRP-anti-human Fc, OD450
[30] = molecular target: human TL1A (HuTL1A) (human) (UniProt O95150); test: competition ELISA: antibody dilution mixed 1:1 with Biotin-TL1A, added to coated DcR3 (1 µg/mL), Streptavidin-HRP, OD450; blocked partner of TL1A: DcR3
[31] = molecular target: human TL1A (HuTL1A) (human) (UniProt O95150); test: as above; remark: listed apart in the source

LIGHT, sequence (O43557 74-240 limits assumed): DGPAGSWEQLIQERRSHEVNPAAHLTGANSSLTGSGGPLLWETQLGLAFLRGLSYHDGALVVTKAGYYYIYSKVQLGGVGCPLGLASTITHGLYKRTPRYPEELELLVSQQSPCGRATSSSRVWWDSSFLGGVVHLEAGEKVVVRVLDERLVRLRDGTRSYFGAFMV
TNFα, sequence (P01375 77-233 limits assumed): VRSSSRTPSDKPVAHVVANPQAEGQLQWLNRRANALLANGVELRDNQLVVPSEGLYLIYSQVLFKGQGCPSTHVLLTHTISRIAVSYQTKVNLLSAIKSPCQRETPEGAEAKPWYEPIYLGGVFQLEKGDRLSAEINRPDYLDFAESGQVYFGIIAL
human TL1A (HuTL1A) (human), sequence (O95150 57-251 limits assumed): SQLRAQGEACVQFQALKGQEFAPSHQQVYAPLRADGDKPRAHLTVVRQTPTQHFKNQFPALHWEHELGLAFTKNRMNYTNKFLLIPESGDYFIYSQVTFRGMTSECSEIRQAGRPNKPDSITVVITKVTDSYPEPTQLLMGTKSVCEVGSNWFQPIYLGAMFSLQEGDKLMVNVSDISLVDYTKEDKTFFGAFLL
FASL, sequence (P48023 134-281 limits assumed): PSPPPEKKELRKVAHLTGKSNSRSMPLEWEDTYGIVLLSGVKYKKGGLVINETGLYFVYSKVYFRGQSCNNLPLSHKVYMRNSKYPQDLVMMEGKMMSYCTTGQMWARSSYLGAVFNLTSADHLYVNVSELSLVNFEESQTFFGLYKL

B1: BM2 antibody (Merck/Prometheus TL1A monoclonal antibody PRA023) (antibody, INN chains, looked up, V domains shown)
VH: QVQLVQSGAEVKKPGASVKVSCKASGFDIQDTYMHWVKQRPGQGLEWMGRIDPASGHTKYDPKFQVRVTITRDTSTSTVYLELSSLRSEDTAVYYCARSGGLPDVWGQGTTVTVSS
VL: EIVLTQSPGTLSLSPGERATLSCRASSSVSYMYWYQQKPGQAPRPLIYATSNLASGIPDRFSGSGSGTDFTLTISRLEPEDFAVYYCQQWEGNPRTFGGGTKLEIK
[1]
  IC50 (read off the curve); SEAP reporter in HEK293T/DR3-NFκB cells with soluble TL1A, OD655: 4 nM
[2]
  IC50 (read off the curve); IFN-γ of human T cells with IL-12, IL-18 and exogenous human TL1A: 1 nM
FASL [3]
  OD450 nm: 0.0643
LT-α [4]
  OD450 nm: 0.0659
FASL [5]
  OD450 nm: 0.0828
LIGHT [6]
  OD450 nm: 0.076
LT-α [7]
  OD450 nm: 0.0701
TNFα [8]
  OD450 nm: 0.0577
FASL [9]
  OD450 nm: 0.0533
LIGHT [10]
  OD450 nm: 0.0864
LT-α [11]
  OD450 nm: 0.0646
TNFα [12]
  OD450 nm: 0.0757
FASL [13]
  OD450 nm: 0.0511
FASL [14]
  OD450 nm: 0.0522
LIGHT [15]
  OD450 nm: 0.0719
LT-α [16]
  OD450 nm: 0.0713
LT-α [17]
  OD450 nm: 0.0701
TNFα [18]
  OD450 nm: 0.0514
LIGHT [19]
  OD450 nm: 0.0643
LIGHT [20]
  OD450 nm: 0.0741
TNFα [21]
  OD450 nm: 0.0522
TNFα [22]
  OD450 nm: 0.0517
FASL [23]
  OD450 nm: 0.0549
LT-α [24]
  OD450 nm: 0.0803
LIGHT [25]
  OD450 nm: 0.0588
TNFα [26]
  OD450 nm: 0.0612
[27]
  Ave Z-dia (nm) of the antigen-antibody complex: 33.1 nm
[28]
  EC50 (read off the curve): 0.2 nM
[29]
  EC50 (read off the curve): 0.2 nM
[30]
  IC50 (read off the curve): 7 µg/mL
[31]
  IC50 (read off the curve): 30 nM
